{"source": "paper PMC7443692", "target": "SARS-CoV-2 Spike glycoprotein trimer immunogen (stabilized, soluble ectodomain) (SARS-CoV-2 | not stated) (UniProt P0DTC2)", "experiment": "negative stain electron microscopy", "data": [{"substance": "SARS-CoV-2 Spike glycoprotein trimer immunogen (stabilized, soluble ectodomain) (from UniProt P0DTC2 14-1208)", "values": [{"measurement": "stoichiometry N", "value": 3}]}]}
